Data on 2 substances can be found in US6759239.

The target of the assay is CD40 on APCs (CD2-depleted human PBMC) (human) (UniProt P25942). The assay is described as follows: cell-based or functional assay.
Chain of UniProt P25942 (P25942 21-277): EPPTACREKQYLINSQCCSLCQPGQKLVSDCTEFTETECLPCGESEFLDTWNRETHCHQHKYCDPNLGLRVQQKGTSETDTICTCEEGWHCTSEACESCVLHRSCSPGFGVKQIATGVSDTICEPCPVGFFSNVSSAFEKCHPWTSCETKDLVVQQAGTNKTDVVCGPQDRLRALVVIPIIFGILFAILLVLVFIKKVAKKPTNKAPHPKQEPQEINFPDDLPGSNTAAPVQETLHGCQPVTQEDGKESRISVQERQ

mAb CD40 G28-5 (antibody): the % Positive APCs for CD40 after 48 h with CD40 mAb on CD32+ L cells plus IL-4 (APC alone: 99(231)) came to 99%, the % Positive APCs for CD54 after 48 h with CD40 mAb on CD32+ L cells plus IL-4 (APC alone: 65(283)) is 97%, the % Positive APCs for CD80 after 48 h with CD40 mAb on CD32+ L cells plus IL-4 (APC alone: 16(78)) came out at 31% and the % Positive APCs for CD86 after 48 h with CD40 mAb on CD32+ L cells plus IL-4 (APC alone: 30(310)) came to 63%. Under “scale: MFI”, the MFI of CD40 on APCs after 48 h with CD40 mAb on CD32+ L cells plus IL-4 (APC alone: 99(231)) is 430, the MFI of CD54 on APCs after 48 h with CD40 mAb on CD32+ L cells plus IL-4 (APC alone: 65(283)) is 443, the MFI of CD58 on APCs after 48 h with CD40 mAb on CD32+ L cells plus IL-4 (APC alone: 40(315)) came out at 458 and the MFI of CD80 on APCs after 48 h with CD40 mAb on CD32+ L cells plus IL-4 (APC alone: 16(78)) was 109. In addition, the MFI of CD86 on APCs after 48 h with CD40 mAb on CD32+ L cells plus IL-4 (APC alone: 30(310)) (scale: MFI) was determined as 464.

As for “CD40L constitutively expressed on the D1.1 Jurkat T cell line (from UniProt P29965 1-261) (ligand)”, the % Positive APCs for CD40 after 24 h with D1.1 cells (APC alone: 99(203)) worked out at 99%, the % Positive APCs for CD54 after 24 h with D1.1 cells (APC alone: 60(350)) was 85%, the % Positive APCs for CD58 after 24 h with D1.1 cells (APC alone: 42(374)) is 70% and the % Positive APCs for CD80 after 24 h with D1.1 cells (APC alone: 17(90)) was 41%. The % Positive APCs for CD86 after 24 h with D1.1 cells (APC alone: 35(318)) was found to be 49%. For the setting “scale: MFI”, this substance returned an MFI of CD40 on APCs after 24 h with D1.1 cells (APC alone: 99(203)) of 312, an MFI of CD54 on APCs after 24 h with D1.1 cells (APC alone: 60(350)) of 358, an MFI of CD58 on APCs after 24 h with D1.1 cells (APC alone: 42(374)) of 380 and an MFI of CD80 on APCs after 24 h with D1.1 cells (APC alone: 17(90)) of 141. Where the note is “scale: MFI”, this substance had an MFI of CD86 on APCs after 24 h with D1.1 cells (APC alone: 35(318)) of 327.
